Assay results published in publication PMC11323322.
Changes are numbered by the printed parent chain. Values belong to the molecule of their own block, whether it stands above or below them.

How the values were obtained:
[1] = tested on: AIR-3A (RNA, G4) GGGGAGGCUGUGGUGAGGG; assay: fluorescence enhancement
[2] = tested on: CIL-6A6-1A (DNA, G4, circular) ATCTCGACTAGTCAGTGGTGGATATGTGCACACTGTTGTGAACGTATGGTTGTCTCGGATTGGTTGTCTCGGAT; assay: fluorescence enhancement
[3] = tested on: CIL-6A6-1 (DNA, G4, circular (5' and 3' ends ligated)) ATCTCGACTAGTCAGTGGTGGATATGGGGAGGCTGTGGTGAGGGTATGGTTGTCTCGGATTGGTTGTCTCGGAT; assay: fluorescence enhancement
[4] = target: T1, sIL-6R (soluble IL-6 receptor alpha) (human, UniProt P08887 20-355); assay: MST; 1x PBSMT pH 7.2: 137 mM NaCl, 2.68 mM KCl, 8.1 mM Na2HPO4, 1.76 mM KH2PO4, 1 mM MgCl2, 0.025% Tween-20; pull-down 1 h (room temperature in SELEX); MST at 25 C; details: protein: commercial
T1 sequence (P08887 20-355): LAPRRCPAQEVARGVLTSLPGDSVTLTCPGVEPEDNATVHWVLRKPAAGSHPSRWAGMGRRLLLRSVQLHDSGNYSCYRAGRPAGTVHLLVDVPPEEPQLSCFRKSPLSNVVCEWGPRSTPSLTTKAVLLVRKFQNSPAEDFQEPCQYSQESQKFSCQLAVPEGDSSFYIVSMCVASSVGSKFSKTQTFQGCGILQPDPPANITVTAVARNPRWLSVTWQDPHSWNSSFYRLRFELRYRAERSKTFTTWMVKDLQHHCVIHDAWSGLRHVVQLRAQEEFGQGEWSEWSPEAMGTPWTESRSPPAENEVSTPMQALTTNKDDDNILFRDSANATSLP

IL-6 (interleukin-6) [5] = target: T2, IL-6 (interleukin-6) (human, UniProt P05231 30-212); assay: pull-down, real-time PCR; 1x PBSMT pH 7.2: 137 mM NaCl, 2.68 mM KCl, 8.1 mM Na2HPO4, 1.76 mM KH2PO4, 1 mM MgCl2, 0.025% Tween-20; pull-down 1 h (room temperature in SELEX); MST at 25 C; details: protein: commercial; circular
T2 sequence (P05231 30-212): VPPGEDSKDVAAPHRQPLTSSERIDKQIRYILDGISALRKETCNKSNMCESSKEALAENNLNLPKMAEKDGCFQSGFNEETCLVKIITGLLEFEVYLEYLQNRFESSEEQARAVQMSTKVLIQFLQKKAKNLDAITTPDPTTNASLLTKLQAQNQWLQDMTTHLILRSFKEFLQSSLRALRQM

[6] = target: T1, sIL-6R (soluble IL-6 receptor alpha); assay: as above; details: protein: commercial; circular
IL-6 (interleukin-6) [7] = target: T2, IL-6 (interleukin-6); assay: pull-down, real-time PCR; smaller Kd than CIL-6A; value only in figure; 1x PBSMT pH 7.2: 137 mM NaCl, 2.68 mM KCl, 8.1 mM Na2HPO4, 1.76 mM KH2PO4, 1 mM MgCl2, 0.025% Tween-20; pull-down 1 h (room temperature in SELEX); MST at 25 C; details: protein: commercial; circular; two putative antiparallel G4 motifs
[8] = target: T1, sIL-6R (soluble IL-6 receptor alpha); assay: as above; details: protein: commercial; circular; two putative antiparallel G4 motifs
IL-6 (interleukin-6) [9] = target: T2, IL-6 (interleukin-6); assay: MST; 1x PBSMT pH 7.2: 137 mM NaCl, 2.68 mM KCl, 8.1 mM Na2HPO4, 1.76 mM KH2PO4, 1 mM MgCl2, 0.025% Tween-20; pull-down 1 h (room temperature in SELEX); MST at 25 C; details: protein: commercial; linear
IL-6 (interleukin-6) [10] = target: T2, IL-6 (interleukin-6); assay: pull-down, real-time PCR; affinity largely retained; 1x PBSMT pH 7.2: 137 mM NaCl, 2.68 mM KCl, 8.1 mM Na2HPO4, 1.76 mM KH2PO4, 1 mM MgCl2, 0.025% Tween-20; pull-down 1 h (room temperature in SELEX); MST at 25 C; details: protein: commercial; circular
IL-6 (interleukin-6) [11] = target: T2, IL-6 (interleukin-6); assay: pull-down, real-time PCR; fully functional; 1x PBSMT pH 7.2: 137 mM NaCl, 2.68 mM KCl, 8.1 mM Na2HPO4, 1.76 mM KH2PO4, 1 mM MgCl2, 0.025% Tween-20; pull-down 1 h (room temperature in SELEX); MST at 25 C; details: protein: commercial; circular
[12] = target: T1, sIL-6R (soluble IL-6 receptor alpha); assay: as above; details: protein: commercial; circular
[13] = order of intensities similar to ThT

- binding ([1]; excitation 425 nm, second highest intensity, with or above CIL-6A6-1A): yes
- binding ([2]; excitation 425 nm, intensity below CIL-6A6-1): yes
- binding ([3]; excitation 425 nm, highest intensity of the five sequences): yes
Molecule: Cc1ccc2c(c1)sc(-c1ccc(N(C)C)cc1)[n+]2C

- binding [1, 13]: yes
- binding [2, 13]: yes
- binding ([3]; fluorescence decreased by added 50 and 100 mM Li+): yes
Molecule: CCc1c(C)c2cc3nc(cc4nc(cc5c(CC)c(C)c(cc1[nH]2)n5C)C(C)=C4CCC(=O)O)C(CCC(=O)O)=C3C

Molecule: GGGGAGGCUGUGGUGAGGG (structured_RNA) [AIR-3A]
- Kd ([4]; G4, 2-tiered): 67.5 nM

B1: CIL-6C (ssDNA)
DNA: ATCTCGACTAGTCATATGGTGTAGATCCTTGGGGAGGCTGTGGTGAGGGGGTTGAAGGTAGTTGCTCGTTGTCTCGGAT
modifications: circular
- binding result (IL-6 (interleukin-6) [5]): binds
- binding result [6]: binds

B2: CIL-6A4-1 (ssDNA)
DNA: ATCTCGACTAGTCAGGGATACCGGATGGGGAGGCTGTGGTGAGGGTATGGTTGTCTCGGATTGGTTGTCTCGGAT
modifications: circular
- binding result (IL-6 (interleukin-6) [5]): binds
- binding result [6]: binds

B3: CIL-6A6-1 (structured_DNA)
DNA: ATCTCGACTAGTCAGTGGTGGATATGGGGAGGCTGTGGTGAGGGTATGGTTGTCTCGGATTGGTTGTCTCGGAT
modifications: circular
- Kd (IL-6 (interleukin-6) [7]): < 8.5 nM
- Kd [8]: < 6.9 nM

B4: IL-6A6-1 (linear form of CIL-6A6-1) (ssDNA)
DNA: B3 DNA
modifications: linear
- binding result (IL-6 (interleukin-6) [9]): no binding
- binding result ([4]; linear): no binding

B5: CIL-6B (ssDNA)
DNA: ATCTCGACTAGTCAGGTGTTGTAATGGTAAGGGGAGGCTGTGGTGAGGGTTGGTTGTCACGGATAGTTGTGTCTCGGAT
modifications: circular
- binding result [6]: binds

B6: CIL-6D (ssDNA)
DNA: ATCTCGACTAGTTAGACGCTACGTGCGGATGGGGAGGCTGTGGTGAGGGTTGGTGTTCTCGGATGATGGTGTCTCGGAT
modifications: circular
- binding result [6]: binds

B7: CIL-6A-C (ssDNA)
DNA: ATCTCGACTAGTCAGTGGTGGATACCGGATTTTTTTTTTTTTTTTTTTTTATGGTTGTCTCGGATTGGTTGTCTCGGAT
modifications: circular
- binding result (IL-6 (interleukin-6) [10]): binds
- binding result [6]: no binding

B8: CIL-6A46 (ssDNA)
DNA: ATCTCGACTAGTCAGGGATATGGGGAGGCTGTGGTGAGGGTATGGTTGTCTCGGATTGGTTGTCTCGGAT
modifications: circular
- binding result (IL-6 (interleukin-6) [5]): binds
- binding result [6]: binds

B9: CIL-6A (ssDNA)
DNA: ATCTCGACTAGTCAGTGGTGGATACCGGATGGGGAGGCTGTGGTGAGGGTATGGTTGTCTCGGATTGGTTGTCTCGGAT
modifications: circular (5'-3' ligated)
- Kd (IL-6 (interleukin-6) [5]): 8.5 nM
- Kd [6]: 6.9 nM

B10: CIL-6A4 (ssDNA)
DNA: B9 DNA with G17T, G18T
modifications: circular
- binding result (IL-6 (interleukin-6) [11]): binds
- binding result [12]: binds

B11: CIL-6A6 (ssDNA)
DNA: B9 DNA with C25T, C26T, G27T, G28T, A29T
modifications: circular
- binding result (IL-6 (interleukin-6) [11]): binds
- binding result [12]: binds

B12: CIL-6A-R (ssDNA)
DNA: ATCTCGACTATTTTTTTTTTTTTTTTTTTTGGGGAGGCTGTGGTGAGGGTTTTTTTTTTTTTTTTTTTTTGTCTCGGAT
modifications: circular
- binding result (IL-6 (interleukin-6) [5]): no binding
